In series [1] the target is Facklamia ignava NrdB∆Grx (lacking the Grx domain) (Facklamia ignava). Put plainly: GEMMA.
Series [2] deals with the molecule itself. Description: SEC. In general terms: Size exclusion chromatography separates by hydrodynamic size, large species first.
The series “GEMMA” concerns the molecule itself. Description: GEMMA.
Series [3] deals with the molecule itself. Put plainly: SEC. The source holds these as a separate data set.

A word on the stoichiometry N: it is the number of molecules, sites or subunits per partner or assembly. “Facklamia ignava NrdB∆Grx (lacking the Grx domain) (domain or fragment)” had a stoichiometry N in series [1] of 4.

B1: Facklamia ignava NrdB (Grx::ATP-cone::NrdB fusion protein), wild type (natural protein, UniProt K1LAT4 1-496, looked up)
chain: MTQVQVYSKKVCPWCTRLKDWMDKNNIDYEEIDIEVHPEAREYLHSLGLKTVPQVFIDGVHRPHEPLYSNLLHYIHGTSKIPQHVTKRNGDRVDFDPTKIEIAIQKANNETHELNDMEINTVTQKVVEKIDIDPIHVEEIQDLVETELMLQSFPRTAKAYILYRAEQTKARQRDIFKPRKNLKPYEYPELESYKEAIQHSYWLHTEYNYTSDIQDYKINVEPHERTAIRNAMLAISQVEVSVKTFWAKLYDRLPKPELANVGMTFAESEVRHSDAYSHLLELLGLNEIFEEIEQIPALNQRVDYLNSHIKYSQTGSNRDYTISILLFSAFIEHISLFSQFLIIMAFNKQKNLFSGISNVIEATSKEEQLHGEFGIDLINTIKAENPDWFDDELKEEIYTLVKQAYESEKDVLDWIYEDGEIDFMPTQTVLEFIKNRLNNSLEAIGLERIFETDLAEVEKTLWFDEEIVSTKHVDFFAKRSVNYTKRSQSMTADDLF
On to B1, for which the “stoichiometry N” value was found to be 4 in the series “SEC [2]” and 2 in the series “GEMMA”.

B2: Facklamia ignava NrdA (natural protein, UniProt K1MC37 1-567, looked up)
chain: MTAQLKNREYEPFYWLTEDSQTFLERGYLREGQDAHSRLREIADRAEEILGIDGFSDKFYTYLGRGYYSLSTPVWTNFGSNRGFPISCFGSTPDDNMASILYTAAEIGMMSKYGGGTSGFFGHLRPRGAAITNNGYSSGAVHFMKLFEQMTDTVSQGSSRRGRFAPYLPIDHPDIDEFLEIGVEGNDIQDLNHAVTVPDDWMREMIQGDREKRATWAKVIQRRVEMGYPYILFTDTINNNKPEWYHDYPITHSNLCSEIMLPDNDHWSFVCNLSSMNVLHYNEWKDTDAVETMIYFLDAVMSEFIEKLEKLRDSDQFEYREAFHFMERAYNFAVENRALGLGVLGWHSLLQSNLIAFESEEASYLNEEIHRTIQERAEKASCELAELFGEPLILKGTGRRNTTTMAIAPTTSSAFIIGQVSQSIEPLFSNYYVKDMSKIKTTIRNRYLVELLEEKGRNTPDVWESIKNHDGSVLHLDFLSDHEKNVFKTFAEINQYEIINQAAVRQRYIDQSQSLNIMINPATTTAKEMNQLYLYAWESGIKSLYYQHSTSAAQAFYRSSVCLACEA
As to B2, in the series “SEC [3]”, the “stoichiometry N” value came out at 2.

(Values after article doi:10.1101/373563 (bioRxiv, 2018).)
